In patent US20190194722, “METHOD” (Oxford Nanopore Technologies Ltd., published 2019):

B1: transposon 2 (dsDNA)
DNA 1: GTTTTCGCATTTATCGTGAAACGCTTTCGCGTTTTTCGTGCGCCGCTTCA
DNA 2: GATCTGAAGCGGCGCACGAAAAACGCGAAAGCGTTTCACGATAAATGCGAAAACTTTTTTTTTT
B2: MuA adapter (Example 2) (dsDNA)
DNA 1: B1 DNA 2
DNA 2: TGCTGATATTGCGTTTTCGCATTTATCGTGAAACGCTTTCGCGTTTTTCGTGCGCCGCTTCA

Tests used:
MuA transposase [1] = target: T1, MuA transposase (UniProt P07636 P07636:1-663); experiment: MuA stays bound after transposition into PhiX174 at room temperature (no Bioanalyser peak); released at 75 C; 10 mM MgCl2, 110 mM NaCl, pH 8; settings: tags: ThermoFisher Scientific; chain copies: 4; 3' overhang on bottom strand
T1 sequence (P07636 whole entry, one chain of several): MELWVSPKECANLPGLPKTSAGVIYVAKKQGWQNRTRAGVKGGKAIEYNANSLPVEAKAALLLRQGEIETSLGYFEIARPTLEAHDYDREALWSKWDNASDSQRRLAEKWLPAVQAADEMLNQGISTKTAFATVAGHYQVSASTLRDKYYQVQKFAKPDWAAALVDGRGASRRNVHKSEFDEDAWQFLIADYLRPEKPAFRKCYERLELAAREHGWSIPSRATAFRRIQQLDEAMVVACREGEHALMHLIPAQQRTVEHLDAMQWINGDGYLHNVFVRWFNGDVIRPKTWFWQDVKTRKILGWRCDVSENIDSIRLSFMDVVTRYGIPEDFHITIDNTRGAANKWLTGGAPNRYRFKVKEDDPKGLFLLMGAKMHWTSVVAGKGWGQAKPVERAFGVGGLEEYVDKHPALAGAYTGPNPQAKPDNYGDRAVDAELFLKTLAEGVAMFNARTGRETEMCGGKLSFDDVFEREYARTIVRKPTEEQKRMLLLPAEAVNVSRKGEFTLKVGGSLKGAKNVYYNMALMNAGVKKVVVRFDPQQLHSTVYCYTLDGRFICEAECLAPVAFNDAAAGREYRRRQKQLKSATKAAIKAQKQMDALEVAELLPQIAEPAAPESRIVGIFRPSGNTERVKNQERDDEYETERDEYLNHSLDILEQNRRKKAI
Protocol: Transpososome 1 and transpososome 2 were each mixed to 50 nM with 1.5 ug of PhiX174 RFI DNA (New England Biolabs) in 25 mM Tris.HCl pH8, 110 mM NaCl and 10 mM MgCl₂ in a 30 ul reaction in a 0.2 ml PCR tube. Each reaction was incubated at room temperature for 2 minutes before being split […] to form 3 tubes of 10 uls for each. 1 tube of each transpososome was incubated at 75° C. for 5 minutes, 1 tube of each transpososome was left at room temperature for 5 minutes with nothing added. Hel308Mbu-E284C/S615C-STrEP(C) (1 uM) was added to the final tubes along with 10 mM of ATP (Sigma-Aldrich) and incubated at room temperature for 5 minutes. 1 ul of each reaction was then analysed on the Agilent 2100 Bioanalyser 12,000 bp setting, along with 1 ul of unmodified PhiX.

MuA transposase [2] = target: T1, MuA transposase; experiment: MuA stays bound at room temperature; tagmentation peak only after 75 C; MgCl2 buffer; settings: tags: ThermoFisher Scientific; chain copies: 4; 5' bottom strand flap, 12 nt 5' tail on top strand, 10 nt 3' tail on bottom strand
Protocol: A transposome complex was formed but addition of 1 ul of the MuA adapter, 4.5 ul of nuclease free water, 2 ul of 5× transposome buffer (125 mM Tris pH 8, 550 mM NaCl, 2.5 mM EDTA, 50% glycerol, 0.25% Triton-X100) and 2.5 ul of concentrated MuA transposase (Thermofisher). The mixture was then incubated at 30° C. for 1.5 hours.
A transposition reaction, containing 10 ul of 5× transposase buffer (125 mM Tris pH 8, 550 mM NaCl, 50 mM MgCl2), 5 ul transposome, 2.5 ug PhiX RFI (NEB) and nuclease free water to 50 ul, was then carried out at room temperature for 10 minutes. After 10 mins 6.25 ul of 100 mM rATP was added and the reaction was split into 5×11.25 ul. To sample (i) and (ii) 1.25 ul of nuclease free water was added; to sample (iii) 1.25 ul of Hel308Mbu-E284C-STrEP(C) (SEQ ID NO: 10 with mutation E284C with a streptavidin tag attached at its C terminus) was added; to sample (iv) 1.25 ul of T4 Dda—(E94C/F98W/C109A/C136A/A360C) (SEQ ID NO: 97 with mutations E94C/F98W/C109A/C136A/A360C and then (ΔM1)G1G2 (where (ΔM1)G1G2=deletion of M1 and then addition G1 and G2), was added; to sample (v) 1.25 ul of UvrD Eco-(E117C/M380C)-STrEP (SEQ ID NO: 122 with mutations E177C/M380C with a streptavidin tag attached at the C terminus). Samples (i), (iii), (iv) and (v) were then left at room temperature for 10 mins while sample (ii) was left at 75° C. for 10 mins. […]

Binder	binding result (MuA transposase [1])	binding result (MuA transposase [2])
B1	binds	
B2		binds
